Where “and” joins values, the source holds several entries; their conditions need not be identical. Identical values can stand only once.
What was measured:
murine BACE1 ECD = molecular target: T1, murine BACE1 ECD (Mus musculus, UniProt P56818); experiment: BIAcore SPR binding kinetics, mouse BACE1; settings: mouse BACE1, pH 7.0, 25° C.
T1 construct: human BACE1 ECD or murine BACE1 ECD (amino acids 1-457) was injected in PBT buffer
Experimental: The binding kinetics of YW412.8.31 was assessed. Briefly, binding affinities of anti-BACE1 IgGs were measured by surface plasmon resonance (SPR) using a BIAcore™-3000 instrument. YW412.8.31 anti-BACE1 human IgG was captured by mouse anti-human Fc antibody (GE Healthcare, cat# BR-1008-39) coated on CM5 biosensor chips to achieve approximately 100 response units (RU). For kinetics measurements, two-fold serial dilutions (0.98 nM to 125 nM) of human BACE1 ECD or murine BACE1 ECD (amino acids 1-457) was injected in PBT buffer (PBS with 0.05% Tween 20) at 25° C. with a flow rate of 30 μl/min. Association rates (kon) and dissociation rates (koff) were calculated using a simple one-to-one Langmuir binding model (BIAcore™ Evaluation Software version 3.2). The equilibrium dissociation constant (KD) was calculated as the ratio koff/kon.

human BACE2 = molecular target: T2, human BACE2 (Homo sapiens, UniProt Q9Y5Z0); experiment: MCE assay, BACE2; assay type: biochemical
T2 construct: the extracellular domain of human BACE2 enzyme (5 nM)
T2 sequence (Q9Y5Z0 63-473 limits assumed): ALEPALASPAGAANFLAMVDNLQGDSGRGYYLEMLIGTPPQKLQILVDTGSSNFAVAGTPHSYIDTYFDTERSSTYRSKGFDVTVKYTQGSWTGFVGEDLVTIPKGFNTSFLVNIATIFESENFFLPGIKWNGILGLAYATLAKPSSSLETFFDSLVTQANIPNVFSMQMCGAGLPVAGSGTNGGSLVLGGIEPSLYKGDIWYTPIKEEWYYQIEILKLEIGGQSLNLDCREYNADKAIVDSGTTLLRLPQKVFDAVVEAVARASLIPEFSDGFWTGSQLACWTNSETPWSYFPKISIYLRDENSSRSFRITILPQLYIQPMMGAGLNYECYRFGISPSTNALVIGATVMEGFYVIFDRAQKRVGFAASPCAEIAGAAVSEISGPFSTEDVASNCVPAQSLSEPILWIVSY
Experimental: The MCE assay reactions were carried out in a final volume of 20 μL per well in a 384-well microplate. A standard enzymatic reaction, initiated by the addition of 10 μL 2× substrate to 5 μL of 4× enzyme and […] of 4× compound, containing 12 nM human BACE1 extracellular domain, […] amyloid precursor protein beta secretase active site peptide (FAM-[…]-CONH2 (SEQ ID NO:55)), 50 mM NaOAc pH 4.4 and 0.1% CHAPS. The same reaction conditions were used for the extracellular domain of human BACE2 enzyme (5 nM) and the extracellular domain of Cathepsin D (6 nM, Calbiochem®). After incubation for 60 minutes at ambient temperature, the product and substrate in each reaction were separated using a 12-sipper microfluidic chip analyzed on an LC3000® (both, Caliper Life Sciences). The separation of product and substrate was optimized by choosing voltages and pressure using the manufacturer's optimization software. The separate buffer contained 100 mM HEPES pH 7.2, 0.015% Brij-35, 0.1% coating reagent #3, 10 mM EDTA and 5% DMSO. The separation conditions used a downstream voltage of −500V, an upstream voltage of −2250V and a screening pressure of −1.2 psi. The product and substrate fluorescence was excited at a wavelength of 488 nm and detected at a wavelength of 530 nm. Substrate conversion was calculated from the electropherogram using HTS Well Analyzer software (Caliper Life Sciences).

[1] = Serum PK in BALB/C and BACE1 knock-out mice; assay type: in vivo, mouse
Experimental: Additionally, PK data was obtained after dosing with YW412.8.31 anti-BACE1 antibody in wild-type and BACE1 knock-out mice. A single dose of anti-BACE1 (1 or 10 mg/kg) was delivered via IV injection to BALB/C mice. Serum PK was analyzed out to 21 days post-dose.
Total anti-BACE1 antibody concentrations in mouse serum and brain samples were measured as follows. Antibody concentrations in mouse serum and brain samples were measured using an enzyme-linked immunosorbent assay (ELISA). NUNC 384 well Maxisorp immunoplates (Neptune, N.J.) were coated with F(ab′)2 fragment of donkey anti-human IgG, Fc fragment specific polyclonal antibody (Jackson ImmunoResearch, West Grove, Pa.) overnight at 4° C. Plates were blocked with phosphate-buffered saline (PBS) containing 0.5% bovine serum albumin (BSA) for 1 hour at room temperature the next day. Each antibody (Control IgG and anti-BACE1) was used as a standard to quantify the respective antibody concentrations. […] Bound antibody was detected with horseradish peroxidase conjugated F(ab′)2 goat anti-human IgG, Fc specific polyclonal antibody (Jackson ImmunoResearch). […] Absorbance was measured at a wavelength of 450 nm with a reference of 630 nm on a Multiskan Ascent reader (Thermo Scientific, Hudson, N.H.). Concentrations were determined from the standard curve using a four-parameter non-linear regression program. […]

T1 sequence (P56818 22-457): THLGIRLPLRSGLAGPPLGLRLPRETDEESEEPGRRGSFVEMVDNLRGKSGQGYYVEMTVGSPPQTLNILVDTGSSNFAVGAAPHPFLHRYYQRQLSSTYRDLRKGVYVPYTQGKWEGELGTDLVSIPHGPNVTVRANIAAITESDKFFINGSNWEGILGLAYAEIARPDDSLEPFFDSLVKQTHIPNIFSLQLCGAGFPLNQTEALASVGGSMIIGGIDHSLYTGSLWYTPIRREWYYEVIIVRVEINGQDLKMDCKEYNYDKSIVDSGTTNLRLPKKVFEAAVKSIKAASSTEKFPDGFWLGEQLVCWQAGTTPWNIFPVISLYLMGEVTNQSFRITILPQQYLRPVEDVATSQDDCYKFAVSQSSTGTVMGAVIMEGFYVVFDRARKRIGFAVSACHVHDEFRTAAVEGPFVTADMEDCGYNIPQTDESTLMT

B1: YW412.8.31: affinity matured form of YW412.8 anti-BACE1 antibody (antibody, V domains shown)
VH: EVQLVESGGGLVQPGGSLRLSCAASGFTFLGYGIHWVRQAPGKGLEWVGWISPAGGSTDYADSVKGRFTISADTSKNTAYLQMNSLRAEDTAVYYCARGPFSPWVMDYWGQGTLVTVSS
VL: DIQMTQSPSSLSASVGDRVTITCRASQDVSTAVAWYQQKPGKAPKLLIYSASFLYSGVPSRFSGSGSGTDFTLTISSLQPEDFATYYCQQFPTYLPTFGQGTKVEIK
Question: Which KON (murine BACE1 ECD) does the source give for B1 here?
Answer: 1.01 × 10^5 M^−1S^−1 and 1.4 × 10^5 M^−1S^−1

Question: And the Kd (murine BACE1 ECD)?
Answer: 1.4 nM and 2.1 nM

Question: What about the “inhibition of human BACE2” value (human BACE2) of the same molecule?
Answer: did not inhibit

Question: And the “serum PK kinetics” value ([1]; 1 or 10 mg/kg single IV, BALB/C mice, to 21 days)?
Answer: non-linear

Question: What about the “serum PK kinetics” value ([1]; single dose, BACE1−/− mice) of the same molecule?
Answer: linear PK

Source: US9879094B2, “Nucleic acid molecules encoding for BACE1 antibodies” (Genentech, Inc., priority 2010, dated 2018)
